Tests used:
[1] = target: T1, Ectodomain of Arabidopsis thaliana MIK2, TwinStrep- and HA-tagged (Arabidopsis thaliana, UniProt Q8VZG8 44-709); test: ligand-depletion assay
T1 sequence (looked up): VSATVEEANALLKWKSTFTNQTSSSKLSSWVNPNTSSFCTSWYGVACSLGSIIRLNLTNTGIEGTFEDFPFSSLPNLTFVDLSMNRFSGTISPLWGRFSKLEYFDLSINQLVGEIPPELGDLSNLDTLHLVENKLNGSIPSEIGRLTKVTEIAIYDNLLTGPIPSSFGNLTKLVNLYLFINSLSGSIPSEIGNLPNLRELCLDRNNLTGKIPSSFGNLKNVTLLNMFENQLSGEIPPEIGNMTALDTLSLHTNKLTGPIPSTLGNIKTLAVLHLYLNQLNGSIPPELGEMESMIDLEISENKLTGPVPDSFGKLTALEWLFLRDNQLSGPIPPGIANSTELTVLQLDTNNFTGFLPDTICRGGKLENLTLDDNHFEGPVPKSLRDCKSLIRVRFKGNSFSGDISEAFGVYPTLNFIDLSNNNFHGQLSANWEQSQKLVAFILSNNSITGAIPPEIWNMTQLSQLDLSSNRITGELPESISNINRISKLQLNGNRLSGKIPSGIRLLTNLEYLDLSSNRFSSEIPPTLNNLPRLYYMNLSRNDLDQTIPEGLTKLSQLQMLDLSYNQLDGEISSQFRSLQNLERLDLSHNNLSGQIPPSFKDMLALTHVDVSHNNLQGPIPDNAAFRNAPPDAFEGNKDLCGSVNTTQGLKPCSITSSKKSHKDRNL

[2] = target: Ectodomain of Arabidopsis thaliana FLAGELLIN-SENSING 2, TwinStrep- and HA-tagged (Arabidopsis thaliana, UniProt Q9FL28 24-806); test: ligand-depletion assay
Chain of Ectodomain of Arabidopsis thaliana FLAGELLIN-SENSING 2, TwinStrep- and HA-tagged (Q9FL28 24-806): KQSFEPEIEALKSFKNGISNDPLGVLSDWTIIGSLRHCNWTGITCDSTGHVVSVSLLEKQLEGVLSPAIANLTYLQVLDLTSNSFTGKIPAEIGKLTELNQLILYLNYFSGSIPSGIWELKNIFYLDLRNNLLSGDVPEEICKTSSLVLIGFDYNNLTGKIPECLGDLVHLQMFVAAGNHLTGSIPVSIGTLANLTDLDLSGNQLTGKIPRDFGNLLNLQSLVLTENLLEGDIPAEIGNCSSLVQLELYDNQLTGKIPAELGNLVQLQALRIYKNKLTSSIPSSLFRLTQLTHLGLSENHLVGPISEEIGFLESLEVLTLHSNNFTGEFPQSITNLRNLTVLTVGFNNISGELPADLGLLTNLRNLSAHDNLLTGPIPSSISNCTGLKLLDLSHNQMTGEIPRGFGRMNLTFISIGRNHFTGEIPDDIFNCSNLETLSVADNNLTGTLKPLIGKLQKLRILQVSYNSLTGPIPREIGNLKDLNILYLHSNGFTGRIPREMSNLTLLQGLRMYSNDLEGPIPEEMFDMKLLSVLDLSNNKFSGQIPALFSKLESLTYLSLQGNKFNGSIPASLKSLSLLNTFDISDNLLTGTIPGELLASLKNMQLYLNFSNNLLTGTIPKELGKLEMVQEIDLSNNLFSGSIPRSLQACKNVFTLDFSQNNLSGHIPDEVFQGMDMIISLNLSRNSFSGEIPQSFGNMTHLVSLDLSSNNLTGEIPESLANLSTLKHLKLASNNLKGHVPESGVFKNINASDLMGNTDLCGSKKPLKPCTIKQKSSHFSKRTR

Binder: PVRSSQSSQAGGR [AtSCOOP12 (SERINE-RICH ENDOGENOUS PEPTIDE 12)]
- binding result [1]: binds

Binder: QRLSTGSRINSAKDDAAGLQIA [flg22 peptide]
- binding result [2]: binds

Source: doi:10.1101/2025.05.22.655486 (bioRxiv, 2025)
